Assay results reported in PMC9482650, “Quantitative fragmentomics allow affinity mapping of interactomes” (Nature Communications, 2022).

Experiments:
Assay in all cases: holdup assay
Set-up in all cases: key: below the threshold = too weak to quantify, mostly under pKd 3.1 to 4
FRMPD4, Q14CM0 = target: FRMPD4, Q14CM0
FRMPD3, Q5JV73 = target: FRMPD3, Q5JV73
SNTG2, Q9NY99 = target: T1, SNTG2, Q9NY99
T1 sequence (Q9NY99 68-166, limits assumed, looked up): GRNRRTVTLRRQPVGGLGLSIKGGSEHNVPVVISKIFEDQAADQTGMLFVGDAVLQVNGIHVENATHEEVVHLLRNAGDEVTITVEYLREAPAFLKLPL

FRMPD2_3, Q68DX3 = target: FRMPD2_3, Q68DX3
SHANK1, Q9Y566 = target: T2, SHANK1, Q9Y566
T2 sequence (Q9Y566 658-767, limits assumed, looked up): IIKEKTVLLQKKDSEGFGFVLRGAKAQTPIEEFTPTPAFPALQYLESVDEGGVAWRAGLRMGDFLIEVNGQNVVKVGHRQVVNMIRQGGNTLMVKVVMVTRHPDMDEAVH

PDZRN4_1, Q6ZMN7 = target: PDZRN4_1, Q6ZMN7
RHPN1, Q8TCX5 = target: T3, RHPN1, Q8TCX5
T3 sequence (Q8TCX5 508-602, limits assumed, looked up): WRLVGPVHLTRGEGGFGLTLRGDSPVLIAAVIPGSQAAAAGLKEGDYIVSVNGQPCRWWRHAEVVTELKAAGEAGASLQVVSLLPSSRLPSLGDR

DLG1_2, Q12959 = target: DLG1_2, Q12959
LNX1_1, Q8TBB1 = target: LNX1_1, Q8TBB1
TJP2_1, Q9UDY2 = target: TJP2_1, Q9UDY2
MAGI3_2, Q5TCQ9 = target: MAGI3_2, Q5TCQ9
Inadl_8, Q8NI35 = target: Inadl_8, Q8NI35
Inadl_10, Q8NI35 = target: Inadl_10, Q8NI35
TJP3_3, O95049 = target: T4, TJP3_3, O95049
T4 sequence (O95049 375-456, limits assumed, looked up): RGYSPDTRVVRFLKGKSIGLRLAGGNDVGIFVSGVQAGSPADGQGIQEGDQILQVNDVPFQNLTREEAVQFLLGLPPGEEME

IL16_3, Q14005 = target: IL16_3, Q14005
Inadl_5, Q8NI35 = target: Inadl_5, Q8NI35
NHERF4_1, Q86UT5-2 = target: NHERF4_1, Q86UT5-2
MAGI1_1, Q96QZ7 = target: MAGI1_1, Q96QZ7
SCRIB_2, Q14160 = target: SCRIB_2, Q14160
LIN7C, Q9NUP9 = target: T5, LIN7C, Q9NUP9
T5 sequence (Q9NUP9 88-185, limits assumed, looked up): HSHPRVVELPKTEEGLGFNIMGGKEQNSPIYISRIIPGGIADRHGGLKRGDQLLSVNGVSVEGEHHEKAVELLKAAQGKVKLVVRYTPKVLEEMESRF

DFNB31_1, Q9P202 = target: T6, DFNB31_1, Q9P202
T6 sequence (Q9P202 135-233, limits assumed, looked up): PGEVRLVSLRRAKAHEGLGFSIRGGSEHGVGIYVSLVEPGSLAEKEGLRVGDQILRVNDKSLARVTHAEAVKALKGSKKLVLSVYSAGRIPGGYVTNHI

DLG4_2, P78352 = target: DLG4_2, P78352
HTRA2, O43464 = target: HTRA2, O43464
FRMPD2_1, Q68DX3 = target: FRMPD2_1, Q68DX3
MPDZ_12, O75970 = target: T7, MPDZ_12, O75970
T7 sequence (O75970 1857-1958, limits assumed, looked up): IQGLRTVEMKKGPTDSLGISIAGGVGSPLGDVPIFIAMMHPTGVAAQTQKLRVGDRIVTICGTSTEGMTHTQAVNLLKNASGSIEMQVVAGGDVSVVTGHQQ

PICK1, Q9NRD5 = target: PICK1, Q9NRD5
SYNJ2BP, P57105 = target: T8, SYNJ2BP, P57105
T8 sequence (P57105 8-110, limits assumed, looked up): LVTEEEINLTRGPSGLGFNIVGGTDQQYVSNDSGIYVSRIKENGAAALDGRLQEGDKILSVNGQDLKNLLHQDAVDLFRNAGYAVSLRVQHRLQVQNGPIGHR

LRRC7, Q96NW7 = target: T9, LRRC7, Q96NW7
T9 sequence (Q96NW7 1440-1537, limits assumed, looked up): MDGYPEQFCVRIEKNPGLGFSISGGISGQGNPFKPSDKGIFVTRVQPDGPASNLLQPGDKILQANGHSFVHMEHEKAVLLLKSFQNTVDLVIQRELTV

[1] = plain residues with an end cap or a label only (N-terminal biotin on a linker: (peg)3)
[2] = plain residues with an end cap or a label only (N-terminal biotin on a linker: ado-ado)

LNX1_1, Q8TBB1, sequence (Q8TBB1 261-371): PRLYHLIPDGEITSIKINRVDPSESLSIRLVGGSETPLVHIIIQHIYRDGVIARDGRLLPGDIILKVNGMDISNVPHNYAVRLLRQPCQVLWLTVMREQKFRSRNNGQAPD
DLG4_2, P78352, sequence (P78352 155-259): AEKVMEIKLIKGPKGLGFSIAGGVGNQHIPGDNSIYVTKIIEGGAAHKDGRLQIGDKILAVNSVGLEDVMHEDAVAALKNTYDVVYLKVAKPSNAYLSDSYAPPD
DLG1_2, Q12959, sequence (Q12959 314-412): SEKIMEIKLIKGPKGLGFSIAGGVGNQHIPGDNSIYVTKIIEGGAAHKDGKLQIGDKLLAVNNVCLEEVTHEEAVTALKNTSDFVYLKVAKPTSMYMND
Inadl_10, Q8NI35, sequence (Q8NI35 1673-1763): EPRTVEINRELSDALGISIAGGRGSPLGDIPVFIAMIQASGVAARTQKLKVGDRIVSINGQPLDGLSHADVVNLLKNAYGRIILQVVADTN
IL16_3, Q14005, sequence (Q14005 1107-1207): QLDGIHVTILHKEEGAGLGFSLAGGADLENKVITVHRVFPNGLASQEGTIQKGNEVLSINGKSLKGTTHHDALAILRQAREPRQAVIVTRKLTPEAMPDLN
SCRIB_2, Q14160, sequence (Q14160 857-960): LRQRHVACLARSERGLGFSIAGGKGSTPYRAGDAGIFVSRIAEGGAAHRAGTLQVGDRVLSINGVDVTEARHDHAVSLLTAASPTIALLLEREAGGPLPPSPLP
PDZRN4_1, Q6ZMN7, sequence (Q6ZMN7 213-318): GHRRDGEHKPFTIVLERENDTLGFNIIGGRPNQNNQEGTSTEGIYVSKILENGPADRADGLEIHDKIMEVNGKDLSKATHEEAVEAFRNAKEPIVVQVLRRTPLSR
HTRA2, O43464, sequence (O43464 355-458): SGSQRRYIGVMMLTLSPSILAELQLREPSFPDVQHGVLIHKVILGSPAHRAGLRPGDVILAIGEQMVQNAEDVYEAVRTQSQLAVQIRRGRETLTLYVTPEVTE
FRMPD2_3, Q68DX3, sequence (Q68DX3 1073-1166): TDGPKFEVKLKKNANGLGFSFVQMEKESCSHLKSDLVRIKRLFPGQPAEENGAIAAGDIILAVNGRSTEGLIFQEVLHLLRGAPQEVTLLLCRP
FRMPD4, Q14CM0, sequence (Q14CM0 67-160): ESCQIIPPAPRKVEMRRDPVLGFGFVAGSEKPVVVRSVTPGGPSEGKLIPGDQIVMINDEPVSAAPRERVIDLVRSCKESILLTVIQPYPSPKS
Inadl_8, Q8NI35, sequence (Q8NI35 1425-1530): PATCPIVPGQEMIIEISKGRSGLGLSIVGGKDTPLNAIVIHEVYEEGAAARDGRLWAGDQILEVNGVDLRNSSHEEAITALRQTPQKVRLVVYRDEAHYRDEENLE
PICK1, Q9NRD5, sequence (Q9NRD5 17-115): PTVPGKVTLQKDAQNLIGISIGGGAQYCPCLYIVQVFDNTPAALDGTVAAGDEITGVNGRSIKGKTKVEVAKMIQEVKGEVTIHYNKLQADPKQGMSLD
Inadl_5, Q8NI35, sequence (Q8NI35 673-780): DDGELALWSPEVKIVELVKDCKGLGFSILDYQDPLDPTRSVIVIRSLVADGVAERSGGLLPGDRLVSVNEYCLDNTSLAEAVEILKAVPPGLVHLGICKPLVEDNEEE
NHERF4_1, Q86UT5-2, sequence (Q86UT5 other isoform, or with tags, fused parts or gaps): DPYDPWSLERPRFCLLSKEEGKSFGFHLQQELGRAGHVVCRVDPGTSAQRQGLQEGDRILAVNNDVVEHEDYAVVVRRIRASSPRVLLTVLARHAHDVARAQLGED
TJP2_1, Q9UDY2, sequence (Q9UDY2 24-128): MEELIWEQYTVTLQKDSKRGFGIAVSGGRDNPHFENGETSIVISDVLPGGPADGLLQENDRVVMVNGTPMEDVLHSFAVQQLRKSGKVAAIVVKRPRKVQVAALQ
FRMPD3, Q5JV73, sequence (Q5JV73 12-100): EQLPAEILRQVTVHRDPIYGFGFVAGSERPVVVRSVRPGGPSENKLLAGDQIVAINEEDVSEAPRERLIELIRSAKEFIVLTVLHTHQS
FRMPD2_1, Q68DX3, sequence (Q68DX3 770-861): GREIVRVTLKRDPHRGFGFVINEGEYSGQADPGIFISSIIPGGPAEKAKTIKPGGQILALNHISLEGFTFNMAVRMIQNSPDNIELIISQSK
MAGI3_2, Q5TCQ9, sequence (Q5TCQ9 398-503): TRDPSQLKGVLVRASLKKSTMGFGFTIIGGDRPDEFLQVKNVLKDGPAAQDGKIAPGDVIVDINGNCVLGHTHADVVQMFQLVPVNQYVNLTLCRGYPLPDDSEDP
MAGI1_1, Q96QZ7, sequence (Q96QZ7 1-106): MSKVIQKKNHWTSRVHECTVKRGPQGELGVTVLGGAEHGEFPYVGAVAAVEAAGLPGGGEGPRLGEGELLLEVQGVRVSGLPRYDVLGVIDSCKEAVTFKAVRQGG

B1: SARS-Cov2-N, P0DTC9 (peptide)
chain: QQSMSSADSTQA
With B1 the pKd (FRMPD4, Q14CM0; [1]) was “below the threshold”, the pKd (FRMPD3, Q5JV73; [1]) was “below the threshold” and the pKd (SNTG2, Q9NY99; [1]) was “below the threshold”. For the same binder, the pKd (FRMPD2_3, Q68DX3; [1]) was “below the threshold”, the pKd (SHANK1, Q9Y566; [1]) was “below the threshold” and the pKd (PDZRN4_1, Q6ZMN7; [1]) was “below the threshold”. The pKd (RHPN1, Q8TCX5; [1]) was “below the threshold”, the pKd (DLG1_2, Q12959; [1]) was “below the threshold” and the pKd (LNX1_1, Q8TBB1; [1]) was “below the threshold”. The pKd (TJP2_1, Q9UDY2; [1]) was “below the threshold”, the pKd (MAGI3_2, Q5TCQ9; [1]) was “below the threshold” and the pKd (Inadl_8, Q8NI35; [1]) was “below the threshold”. For the same binder, the pKd (Inadl_10, Q8NI35; [1]) was “below the threshold”, the pKd (TJP3_3, O95049; [1]) was “below the threshold” and the pKd (IL16_3, Q14005; [1]) was “below the threshold”. For the same binder, the pKd (Inadl_5, Q8NI35; [1]) was “below the threshold”, the pKd (NHERF4_1, Q86UT5-2; [1]) was “below the threshold” and the pKd (MAGI1_1, Q96QZ7; [1]) was “below the threshold”. The pKd (SCRIB_2, Q14160; [1]) was “below the threshold”, the pKd (LIN7C, Q9NUP9; [1]) was “below the threshold” and the pKd (DFNB31_1, Q9P202; [1]) was “below the threshold”. The pKd (DLG4_2, P78352; [1]) was “below the threshold”, the pKd (HTRA2, O43464; [1]) was “below the threshold” and the pKd (FRMPD2_1, Q68DX3; [1]) was “below the threshold”. The pKd (MPDZ_12, O75970; [1]) was “below the threshold”, the pKd (PICK1, Q9NRD5; [1]) was “below the threshold” and the pKd (SYNJ2BP, P57105; [1]) was “below the threshold”. The pKd (LRRC7, Q96NW7; [1]) was “below the threshold”.

B2: SLC22A9, Q8IVM8 (peptide)
chain: EDPRVEVTQF
In the case of B2, the pKd (FRMPD4, Q14CM0; [2]) is reported as “below the threshold”, the pKd (FRMPD3, Q5JV73; [2]) is reported as “below the threshold” and the pKd (SNTG2, Q9NY99; [2]) is reported as “below the threshold”. The pKd (FRMPD2_3, Q68DX3; [2]) was “below the threshold”, the pKd (SHANK1, Q9Y566; [2]) was 5.36 and the pKd (PDZRN4_1, Q6ZMN7; [2]) was “below the threshold”. The pKd (RHPN1, Q8TCX5; [2]) was 4.4, the pKd (DLG1_2, Q12959; [2]) was “below the threshold” and the pKd (LNX1_1, Q8TBB1; [2]) was “below the threshold”. The pKd (TJP2_1, Q9UDY2; [2]) was “below the threshold”, the pKd (MAGI3_2, Q5TCQ9; [2]) was “below the threshold” and the pKd (Inadl_8, Q8NI35; [2]) was “below the threshold”. For the same binder, the pKd (Inadl_10, Q8NI35; [2]) was “below the threshold”, the pKd (TJP3_3, O95049; [2]) was “below the threshold” and the pKd (IL16_3, Q14005; [2]) was “below the threshold”. For the same binder, the pKd (Inadl_5, Q8NI35; [2]) was “below the threshold”, the pKd (NHERF4_1, Q86UT5-2; [2]) was 4.3 and the pKd (MAGI1_1, Q96QZ7; [2]) was “below the threshold”. The pKd (SCRIB_2, Q14160; [2]) was “below the threshold”, the pKd (LIN7C, Q9NUP9; [2]) was “below the threshold” and the pKd (DFNB31_1, Q9P202; [2]) was “below the threshold”. For the same binder, the pKd (DLG4_2, P78352; [2]) was “below the threshold”, the pKd (HTRA2, O43464; [2]) was “below the threshold” and the pKd (FRMPD2_1, Q68DX3; [2]) was “below the threshold”. For the same binder, the pKd (MPDZ_12, O75970; [2]) was “below the threshold”, the pKd (PICK1, Q9NRD5; [2]) was “below the threshold” and the pKd (SYNJ2BP, P57105; [2]) was “below the threshold”. For the same binder, the pKd (LRRC7, Q96NW7; [2]) was “below the threshold”.

B3: TRIP6, Q15654 (peptide)
chain: ELSATVTTDC
For B3, the pKd (FRMPD4, Q14CM0; [2]) was “below the threshold”, the pKd (FRMPD3, Q5JV73; [2]) was “below the threshold” and the pKd (SNTG2, Q9NY99; [2]) was 3.79. For the same binder, the pKd (FRMPD2_3, Q68DX3; [2]) was “below the threshold”, the pKd (SHANK1, Q9Y566; [2]) was 3.63 and the pKd (PDZRN4_1, Q6ZMN7; [2]) was “below the threshold”. For the same binder, the pKd (RHPN1, Q8TCX5; [2]) was 4.32, the pKd (DLG1_2, Q12959; [2]) was 3.67 and the pKd (LNX1_1, Q8TBB1; [2]) was 3.95. The pKd (TJP2_1, Q9UDY2; [2]) was “below the threshold”, the pKd (MAGI3_2, Q5TCQ9; [2]) was “below the threshold” and the pKd (Inadl_8, Q8NI35; [2]) was 3.55. For the same binder, the pKd (Inadl_10, Q8NI35; [2]) was “below the threshold”, the pKd (TJP3_3, O95049; [2]) was “below the threshold” and the pKd (IL16_3, Q14005; [2]) was 3.59. For the same binder, the pKd (Inadl_5, Q8NI35; [2]) was “below the threshold”, the pKd (NHERF4_1, Q86UT5-2; [2]) was 3.69 and the pKd (MAGI1_1, Q96QZ7; [2]) was 3.82. The pKd (SCRIB_2, Q14160; [2]) was “below the threshold”, the pKd (LIN7C, Q9NUP9; [2]) was “below the threshold” and the pKd (DFNB31_1, Q9P202; [2]) was 3.81. For the same binder, the pKd (DLG4_2, P78352; [2]) was 3.91, the pKd (HTRA2, O43464; [2]) was “below the threshold” and the pKd (FRMPD2_1, Q68DX3; [2]) was “below the threshold”. The pKd (MPDZ_12, O75970; [2]) was “below the threshold”, the pKd (PICK1, Q9NRD5; [2]) was 3.8 and the pKd (SYNJ2BP, P57105; [2]) was 4.68. For the same binder, the pKd (LRRC7, Q96NW7; [2]) was “below the threshold”.

B4: AQP3, Q92482 (peptide)
chain: LAHVKHKEQI
In the case of B4, the pKd (FRMPD4, Q14CM0; [2]) is reported as “below the threshold”, the pKd (FRMPD3, Q5JV73; [2]) is reported as “below the threshold” and the pKd (SNTG2, Q9NY99; [2]) is reported as “below the threshold”. For the same binder, the pKd (FRMPD2_3, Q68DX3; [2]) was “below the threshold”, the pKd (SHANK1, Q9Y566; [2]) was “below the threshold” and the pKd (PDZRN4_1, Q6ZMN7; [2]) was “below the threshold”. The pKd (RHPN1, Q8TCX5; [2]) was “below the threshold”, the pKd (DLG1_2, Q12959; [2]) was “below the threshold” and the pKd (LNX1_1, Q8TBB1; [2]) was “below the threshold”. For the same binder, the pKd (TJP2_1, Q9UDY2; [2]) was “below the threshold”, the pKd (MAGI3_2, Q5TCQ9; [2]) was “below the threshold” and the pKd (Inadl_8, Q8NI35; [2]) was “below the threshold”. For the same binder, the pKd (Inadl_10, Q8NI35; [2]) was “below the threshold”, the pKd (TJP3_3, O95049; [2]) was “below the threshold” and the pKd (IL16_3, Q14005; [2]) was “below the threshold”. The pKd (Inadl_5, Q8NI35; [2]) was “below the threshold”, the pKd (NHERF4_1, Q86UT5-2; [2]) was “below the threshold” and the pKd (MAGI1_1, Q96QZ7; [2]) was “below the threshold”. The pKd (SCRIB_2, Q14160; [2]) was “below the threshold”, the pKd (LIN7C, Q9NUP9; [2]) was “below the threshold” and the pKd (DFNB31_1, Q9P202; [2]) was “below the threshold”. The pKd (DLG4_2, P78352; [2]) was “below the threshold”, the pKd (HTRA2, O43464; [2]) was “below the threshold” and the pKd (FRMPD2_1, Q68DX3; [2]) was “below the threshold”. For the same binder, the pKd (MPDZ_12, O75970; [2]) was “below the threshold”, the pKd (PICK1, Q9NRD5; [2]) was 3.98 and the pKd (SYNJ2BP, P57105; [2]) was “below the threshold”. The pKd (LRRC7, Q96NW7; [2]) was “below the threshold”.
